Assay results as given in publication PMC8688422.

Legend:
galectin-1 = galectin-1 (UniProt P09382); assay: SPR; BIAcore 1000, galectin-1 amine-coupled to CM5 chip, analyte injected at different concentrations, 25 °C, HBS-EP (10 mM HEPES, 150 mM NaCl, 3 mM EDTA, 0.005% P20) pH 7.4; single association, biphasic dissociation
galectin-1 C3S = galectin-1 C3S (UniProt P09382)

Substance: platelet factor 4 (PF4/CXCL4) (ligand)
- K1 (kd1/ka) (galectin-1): 9 µM
- K2 (kd2/ka) (galectin-1): 483 nM
- kd1 (first phase of the biphasic dissociation) (galectin-1): 0.092 s⁻¹
- kd2 (second phase of the biphasic dissociation) (galectin-1): 0.005 s⁻¹
- kon (galectin-1): 10200 M⁻¹ s⁻¹
- stoichiometry N (CXCL4 per galectin-1) (galectin-1): 2
- fluorescence anisotropy: binding affinity of galectin-1 C3S for the fluorescein-tagged tdga-probe with 8 µM CXCL4 against galectin-1 alone (galectin-1 C3S): 10 fold
- fluorescence anisotropy: inhibitory potency of asialofetuin (ASF) on the galectin-1 C3S/tdga-probe interaction with 8 µM CXCL4 against without (galectin-1 C3S): > 600 fold
